According to publication PMC11224109, “Synthesis and preclinical evaluation of novel ^18F-vancomycin-based tracers for the detection of bacterial infections using positron emission tomography” (European Journal of Nuclear Medicine and Molecular Imaging, 2024):

Key:
[1] = Summary of tracer stability in vitro and in vivo
Description: Stability of the tracers was determined in PBS and human plasma. In a typical experiment, 1 MBq of radioactivity (10–20 µL) was added to 250 µL of PBS or human plasma. Samples were heated to 37 °C on a shaker and sampled at fixed intervals. For samples containing human plasma, protein was precipitated using two volumes of cold MeCN. Precipitated samples were briefly centrifuged to pellet the insoluble fraction and supernatant was used for stability assessment. Supernatant (1 µL) was loaded on a TLC plate and imaged using BAS-IP MS 2025 E plates (Fujifilm, Tokyo, Japan) on an Amersham Typhoon Biomolecular Imager (GE Healthcare Bio-Sciences Corp, Chicago, United States) equipped with a phosphor imaging stage. [^18F]BODIPY-FL-vancomycin has an Rf of 0.68 (petroleum ether/MeOH 3:1), [^18F]FB-vancomycin has an Rf of 0.66 (2 M NaOAc/MeOH 5:1). For [^18F]PQ-VE1-vancomycin, conditions described in [44] were used.

Gram-positive bacteria = assay: Tracer binding to test panel of clinically relevant bacteria, Gram-positive; set-up: species or system C. acnes, E. faecalis, S. aureus, S. capitis, S. epidermidis; details: summary table
Description: Clinical isolates of E. cloacae, S. capitis, S. aureus, as well as type strains of E. coli, E. faecalis, K. pneumoniae, P. aeruginosa and S. epidermidis were grown under aerobic conditions in brain heart infusion broth. A clinical isolate of the anaerobic bacterium C. acnes was grown on plate in an anaerobic chamber, and subsequently cultured in liquid medium with minimal headspace. Samples from fresh bacterial cultures were normalized to an OD600 of 1.0, fixed in PBS with 0.5% paraformaldehyde (PFA) for 10 min at room temperature, and resuspended in 1 mL sterile PBS. The fixated bacteria were incubated with tracer (133 kBq per mL, 42.8 pg and 0.6 pg of [^18F]BODIPY-FL-vancomycin and [^18F]PQ-VE1-vancomycin, respectively) and washed twice with sterile PBS. […] Measurements were corrected for background and decay. Results are reported as percentage of the total tracer added.

[2] = Distribution coefficient LogD7.4, shake-flask n-octanol/PBS; assay type: physicochemical; details: shake-flask n-octanol/PBS pH 7.4, 500 µL each, 10 µL tracer in saline, vortexed 30 s, shaken 15 min, gamma counter, mean ± SD
Description: The tracer distribution coefficient in n-octanol/PBS pH 7.4 (LogD7.4) was determined using a shake-flask methodology. To an Eppendorf tube containing 500 µL n-octanol and 500 µL PBS, 10 µL tracer solution in saline was added. The vial was vortexed for 30 s and placed on an Eppendorf shaker for 15 min. After incubation, layers were separated by centrifugation (1 min at 10.000 rpm) and a fraction of the n-octanol layer was pipetted off. To minimize contamination of the bottom layer with the n-octanol layer, the bottom PBS layer was collected by puncturing the bottom of the Eppendorf tube with a 22G needle and aspirating a fraction of the PBS layer. Collected fractions were weighted to correct for collected volume and subsequently measured on a calibrated gamma counter and corrected for decay. LogD7.4 was calculated as [drawing 1] .

in vivo = details: in vivo; for tissue uptake at 0.5 h / tissue uptake at 1 h / tissue uptake at 1.5 h: male, C57BL/6, mouse, 2 MBq, total radioactivity, Biodistribution
Description: All murine experiments were approved by the Animal Care and Use Committee of the University of Groningen under license protocol number 2114768-01-001. In vivo biodistribution was performed in male C57BL/6 mice (age 8 weeks, 25 g). Per tracer, the animals were divided in three groups based on the tracer distribution times (30 min, 60 min, and 90 min). […] Each experimental arm (i.e. time point) consisted of three animals. […] Tracer was administered at t = 0 via penile vein injection (2.0 ± 0.9 MBq in 100 µL 0.9% saline solution, Supplemental Table 2). After tracer administration, the animals were transferred to a Siemens Focus 220 microPET small animal scanner (Siemens, Munich, Germany) and scanned for the designated time, followed by a transmission scan of 10 min for attenuation correction. PET data were normalized and corrected for decay, after which the PET data were reconstructed using OSEM2D-Z1-SC-256. The PET data frames used for reconstruction were: 6 × 10 s, 4 × 30 s, 2 × 60 s, 120 s, 180 s, 4 × 300 s, 3 × 600 s, 1200 s or until the designated scan time was reached, taking into account a 10-min transmission scan following the emission scan. Next, animals were terminated, and organs harvested to assay biodistribution in a calibrated gamma counter (Wizard2, Perkin Elmer, Waltham, United States).

Cc1cc(C)n2c1C=C1C=CC(CCC(=O)N(C)[C@H](CC(C)C)C(=O)N[C@H]3C(=O)N[C@@H](CC(N)=O)C(=O)N[C@H]4C(=O)N[C@H]5C(=O)N[C@H](C(=O)N[C@H](C(=O)O)c6cc(O)cc(O)c6-c6cc5ccc6O)[C@H](O)c5ccc(c(Cl)c5)Oc5cc4cc(c5O[C@@H]4O[C@H](CO)[C@@H](O)[C@H](O)[C@H]4O[C@H]4C[C@](C)(N)[C@H](O)[C@H](C)O4)Oc4ccc(cc4Cl)[C@H]3O)=[N+]1[B-]2(F)F [[^18F]BODIPY-FL-vancomycin]
Stability [1]: Stable in vitro and in vivo up to 2 h.
Binding to Gram-positive bacteria in vitro (Gram-positive bacteria): LogD7.4 -1.72. Am 5.35 GBq/µmol. MIC 16 µg/mL. Binding to Gram-positive bacteria in vitro.
LogD7.4 [2]: -1.72 ± 0.02 (n = 10)
tissue uptake at 0.5 h (in vivo; iv, Bladder): 4.83 %ID/g
tissue uptake at 1 h (in vivo; iv, Bladder): 7.62 %ID/g
tissue uptake at 1.5 h (in vivo; iv, Bladder): 9.43 %ID/g
tissue uptake at 0.5 h (in vivo; iv, Bone): 1.2 %ID/g
tissue uptake at 1 h (in vivo; iv, Bone): 2.71 %ID/g
tissue uptake at 1.5 h (in vivo; iv, Bone): 3.27 %ID/g
tissue uptake at 0.5 h (in vivo; iv, Brain): 0.05 %ID/g
tissue uptake at 1 h (in vivo; iv, Brain): 0.09 %ID/g
tissue uptake at 1.5 h (in vivo; iv, Brain): 0.05 %ID/g
tissue uptake at 0.5 h (in vivo; iv, Fat): 0.59 %ID/g
tissue uptake at 1 h (in vivo; iv, Fat): 0.67 %ID/g
tissue uptake at 1.5 h (in vivo; iv, Fat): 0.49 %ID/g
tissue uptake at 0.5 h (in vivo; iv, Heart): 0.96 %ID/g
tissue uptake at 1 h (in vivo; iv, Heart): 1.25 %ID/g
tissue uptake at 1.5 h (in vivo; iv, Heart): 0.81 %ID/g
tissue uptake at 0.5 h (in vivo; iv, Kidneys): 7.77 %ID/g
tissue uptake at 1 h (in vivo; iv, Kidneys): 7.13 %ID/g
tissue uptake at 1.5 h (in vivo; iv, Kidneys): 7 %ID/g
tissue uptake at 0.5 h (in vivo; iv, Large intestine): 0.93 %ID/g
tissue uptake at 1 h (in vivo; iv, Large intestine): 1.34 %ID/g
tissue uptake at 1.5 h (in vivo; iv, Large intestine): 0.91 %ID/g
tissue uptake at 0.5 h (in vivo; iv, Liver): 2.27 %ID/g
tissue uptake at 1 h (in vivo; iv, Liver): 3.47 %ID/g
tissue uptake at 1.5 h (in vivo; iv, Liver): 2.86 %ID/g
tissue uptake at 0.5 h (in vivo; iv, Lungs): 4.59 %ID/g
tissue uptake at 1 h (in vivo; iv, Lungs): 6.68 %ID/g
tissue uptake at 1.5 h (in vivo; iv, Lungs): 4.39 %ID/g
tissue uptake at 0.5 h (in vivo; iv, Muscle): 0.42 %ID/g
tissue uptake at 1 h (in vivo; iv, Muscle): 0.66 %ID/g
tissue uptake at 1.5 h (in vivo; iv, Muscle): 0.46 %ID/g
tissue uptake at 0.5 h (in vivo; iv, Plasma): 2.41 %ID/g
tissue uptake at 1 h (in vivo; iv, Plasma): 3.25 %ID/g
tissue uptake at 1.5 h (in vivo; iv, Plasma): 2.13 %ID/g
tissue uptake at 0.5 h (in vivo; iv, Small intestine): 1.1 %ID/g
tissue uptake at 1 h (in vivo; iv, Small intestine): 2.01 %ID/g
tissue uptake at 1.5 h (in vivo; iv, Small intestine): 1.89 %ID/g
tissue uptake at 0.5 h (in vivo; iv, Spleen): 1.41 %ID/g
tissue uptake at 1 h (in vivo; iv, Spleen): 3.02 %ID/g
tissue uptake at 1.5 h (in vivo; iv, Spleen): 2.73 %ID/g
tissue uptake at 0.5 h (in vivo; iv, Stomach): 1.16 %ID/g
tissue uptake at 1 h (in vivo; iv, Stomach): 1.59 %ID/g
tissue uptake at 1.5 h (in vivo; iv, Stomach): 0.98 %ID/g
tissue uptake at 0.5 h (in vivo; iv, Whole blood): 1.68 %ID/g
tissue uptake at 1 h (in vivo; iv, Whole blood): 1.86 %ID/g
tissue uptake at 1.5 h (in vivo; iv, Whole blood): 1.1 %ID/g
Accumulation (in vivo; mouse): Accumulation in liver, kidneys and lungs
Muscle uptake (in vivo; mouse): Low muscle uptake
Crossing of the blood-brain barrier (BBB) (in vivo; mouse, iv): no substantial signal was observed in the brain
